Target: Human interleukin-18 (recombinant human IL-18) (human) (UniProt Q14116)
Assay: cell-based or functional assay

Chain of Human interleukin-18 (recombinant human IL-18) (human) (Q14116 37-193 limits assumed): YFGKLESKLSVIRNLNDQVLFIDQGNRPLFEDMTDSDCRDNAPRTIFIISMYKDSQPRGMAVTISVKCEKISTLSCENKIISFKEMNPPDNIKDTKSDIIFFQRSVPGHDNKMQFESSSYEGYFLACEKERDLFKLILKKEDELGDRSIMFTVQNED
Chain of IL-18 bp (IL-18 binding protein as used in the bioassays) (O95998 31-194 limits assumed): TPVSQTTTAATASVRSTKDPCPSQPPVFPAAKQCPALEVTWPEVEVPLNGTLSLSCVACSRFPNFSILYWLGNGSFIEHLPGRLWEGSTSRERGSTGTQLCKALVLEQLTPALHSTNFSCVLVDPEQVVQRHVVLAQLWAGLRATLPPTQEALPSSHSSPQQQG

IC50, LPS-stimulated IFNγ release, human PBMC, Donor 1 10% serum: 0.024
IC50, LPS-stimulated IFNγ release, human PBMC, Donor 1 25% serum: 0.064
IC50, LPS-stimulated IFNγ release, human PBMC, Donor 3 10% serum: 0.032
IC50, LPS-stimulated IFNγ release, human PBMC, Donor 3 25% serum: 0.046
complete inhibition of IL-18 mediated IFNγ release, LPS-stimulated human PBMC, 10% or 25% human serum: > 1 µg/mL
Substance: IL-18 bp (IL-18 binding protein as used in the bioassays) (from UniProt O95998 31-194)
